Laboratory results taken from patent US20240239894A1, “THERAPEUTIC BINDING MOLECULES” (MedImmune Limited, priority 2020, published 2024).
“Also recorded” adds a separate entry of the source.

Tests used:
[1] = biological target: T1, human B7-H4 (Homo sapiens, UniProt Q7Z7D3); assay: ELISA comparison with 1D11; assay type: binding; settings: E02-GL compared with 1D11
T1 construct: Human B7H4 ECD; FlagHis10 or FcHis6 (either; equivalent data); made in house
T1 sequence (Q7Z7D3 25-259 limits assumed): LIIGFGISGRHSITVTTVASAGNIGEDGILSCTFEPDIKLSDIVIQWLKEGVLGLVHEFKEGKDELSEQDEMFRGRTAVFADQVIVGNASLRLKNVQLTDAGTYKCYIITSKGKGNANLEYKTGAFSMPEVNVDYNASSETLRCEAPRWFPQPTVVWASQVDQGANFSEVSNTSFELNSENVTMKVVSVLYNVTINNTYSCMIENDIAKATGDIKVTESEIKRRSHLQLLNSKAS
Protocol: The binding of the anti-B7-H4 antibodies (e.g. intermediate ZY0EQD-E02-GL and anti-B7-H4 mAB D11) to B7-H4 (e.g. human and mouse B7-H4) was measured by ELISA. Recombinant B7-H4-Fc (e.g. Human B7-H4-Fc and mouse B7-H4-Fc) proteins were diluted into DPBS to give 5 ug/ml solution. 50 μL of the diluted stocks was then added Nunc Maxisorp 96 well plates. 50 μL/well DPBS was added to control wells. The antigens were allowed to adsorb to the plates overnight at 4° C., washed once with DPBS and incubated with blocking buffer (3% w/v Marvel in DPBS) at room temperature for 1 hour. The plates were then washed once with PBS and incubated for 1 hour with 6.4 pM-100 nM anti-B7-H4 antibody (e.g. intermediate ZY0EQD-E02-GL or anti-B7-H4 mAb D11) diluted in DPBS containing 1% BSA, 0.3% Triton X-100. The plates were then washed three times with PBS containing 0.1% Tween and incubated with peroxidase-conjugated goat anti-human light chain antibody (Sigma Aldrich, Poole, UK) for 1 hour at room temperature. The plates were then washed five times with PBS containing 0.1% Tween. Following a 5-minute incubation with TMB peroxidase substrate, the reaction was stopped by the addition of 0.5 M H2SO4. Absorbance at 450 nm (A450) was measured using an Envision multilabel plate reader (Perkin Elmer, Seer Green, UK). […]

[2] = test system: SKBR3; assay: E02-GL MESF on cell line; assay type: cell-based, human
[3] = biological target: T2, immobilized recombinant human B7-H4 (Homo sapiens, UniProt Q7Z7D3); assay: DELFIA-ELISA; assay type: binding
T2 sequence (Q7Z7D3 25-282): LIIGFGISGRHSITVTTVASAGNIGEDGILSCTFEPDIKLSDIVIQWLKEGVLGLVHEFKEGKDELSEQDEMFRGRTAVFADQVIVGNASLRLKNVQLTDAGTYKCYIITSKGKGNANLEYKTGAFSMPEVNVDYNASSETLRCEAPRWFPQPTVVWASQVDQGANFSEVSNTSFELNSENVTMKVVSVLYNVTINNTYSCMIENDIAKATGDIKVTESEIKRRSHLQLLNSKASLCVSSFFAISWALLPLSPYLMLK
Protocol: (§1) To assess whether conjugation of the topoisomerase 1 linker-warhead affected binding properties of the E02-INT antibody, the binding affinity of E02-INT and E02-GL-SG3932 were measured using a DELFIA-ELISA method and an SPR method. […] The kinetic rate constants (kon and koff) and equilibrium dissociation constants (KD) of E02-INT and E02-GL-SG3932 for human B7-H4 antigen was also determined by SPR, using an antibody capture method.

[4] = biological target: T3, human B7-H4 antigen (Homo sapiens, UniProt Q7Z7D3); assay: SPR, antibody capture method; assay type: binding
T3 sequence (Q7Z7D3 25-282): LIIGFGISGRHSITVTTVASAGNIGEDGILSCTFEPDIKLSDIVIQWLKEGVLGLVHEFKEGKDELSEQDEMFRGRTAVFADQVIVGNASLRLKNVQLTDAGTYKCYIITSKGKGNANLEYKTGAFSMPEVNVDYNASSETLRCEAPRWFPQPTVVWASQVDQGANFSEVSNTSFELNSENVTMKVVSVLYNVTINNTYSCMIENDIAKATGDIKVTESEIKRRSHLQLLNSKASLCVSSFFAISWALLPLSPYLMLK
Protocol: as §1

[5] = test system: SKBR3 cell line (target cell); assay: ADCC with primary human NK cells; assay type: cell-based; settings: 1 μg/mL; NK cells from healthy donors
Text: When IgG antibodies bind cell surface antigens via their Fab domains, the Fc portion of the antibodies can engage with FcγRIIIa on natural killer cells. The interaction of the Fc domain with FcγRIIIa induces cross-linking of the FcγRs, which triggers the release of cytotoxic granules containing perforin and granzymes, leading to the death of the target cell, a process called antibody-dependent cellular cytotoxicity (ADCC). The potential of antibody E02-INT and E02-GL-SG3932 to initiate ADCC activity was evaluated utilizing isolated primary human NK cells and the human breast cancer SKBR3 cell line as the target cell.
Next, human breast cancer SK-BR-3 cells were co-cultured with NK cells isolated from six healthy donors in the presence of 1 μg/mL E02-GL-SG3932, antibody intermediate E02-INT, isotype-matched control antibody NIP228, and the isotype-matched control ADC NIP228-SG3932 (FIG. 37). ADCC activity was evaluated by Incycte® Annexin V Dye binding of extracellular surface exposure of phosphatidyl serine on apoptotic cells, yielding a bright and stable red fluorescent signal. The fold-change was based on maximum cell death of non-drug treated NK/SK-BR-3 co-cultured cells. Maximum cell death was calculated by dividing the average red objects in experimental wells by the average maximum cell death in Staurosporine treated SK-BR-3 cells.

[6] = test system: MX-1 breast cancer xenograft; assay: Xenograft efficacy; assay type: in vivo, CB-17 SCID mice; settings: 10 mg/kg
Protocol: The antitumor activity of antibody intermediate E02-INT and E02-GL-SG3932 was investigated in human tumor xenograft mouse models using immunodeficient CB-17 SCID mice.
The effect of E02-GL-SG3932, the isotype-matched control ADC NIP228-SG3932, and E02-INT, the antibody intermediate of E02-GL-SG3932 was evaluated in the MX-1 breast cancer xenograft model. Animals were injected SC with MX-1 cells and after tumors grew in volume to a mean of 270 mm3, animals were randomized and each mouse received an IV injection of test or control articles.

B1: E02-GL: germlined ZY0EQD-E02, VH SEQ ID NO: 45, VL SEQ ID NO: 34; antibody intermediate of E02-GL-SG3932 (antibody, V domains shown)
VH: QVQLQQWGAGLLKPSETLSLACTVYGGSFSGYYWNWIRQPPGKGLEWIGEINHSGSTSYNPSLKSRVTISVDTSKNQFSLKLSSVTAADTAVYYCARVLYNWNVDSWGQGTLVTVSS
VL: DIQMTQSPSSLSASVGDRVTITCRASQDIRNDVGWYQQKPGKAPKRLIYAASRLQSGVPSRFSGSGSGTEFTLTISSLQPEDFATYYCLQHNSYPRTFGQGTKVEIK
[1]
  binding (affinity) to human B7-H4 by ELISA: significantly better binding; also recorded: significantly stronger binding
[2]
  E02-GL MESF: 78,343 MESF
[3]
  EC50: 1.98 nM
[4]
  Ka: 93800 M⁻¹ s⁻¹
  Kd: 31.1 nM
  Kd (s^−1): 0.00292 s⁻¹
  Rmax (RU): 56.8 RU
[5]
  ADCC activity beyond untreated co-cultured cells: significant increase in ADCC activity
[6]
  TGI: −1%
